Legend:
Assay in all cases: holdup assay
Parameters in all cases: key: below the threshold = too weak to quantify, mostly under pKd 3.1 to 4
MPDZ_5, O75970 = biological target: T1, MPDZ_5, O75970
T1 sequence (O75970 695-796, limits assumed, looked up): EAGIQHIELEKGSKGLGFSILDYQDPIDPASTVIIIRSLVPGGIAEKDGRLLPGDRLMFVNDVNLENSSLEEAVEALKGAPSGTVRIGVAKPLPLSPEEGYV

LNX1_3, Q8TBB1 = biological target: LNX1_3, Q8TBB1
AHNAK1, Q09666 = biological target: AHNAK1, Q09666
GRIP1_4, Q9Y3R0 = biological target: T2, GRIP1_4, Q9Y3R0
T2 sequence (Q9Y3R0 467-571, limits assumed, looked up): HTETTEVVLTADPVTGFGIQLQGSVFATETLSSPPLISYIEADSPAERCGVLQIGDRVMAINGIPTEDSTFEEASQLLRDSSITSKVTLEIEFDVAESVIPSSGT

TIAM2, Q8IVF5 = biological target: T3, TIAM2, Q8IVF5
T3 sequence (Q8IVF5 885-986, limits assumed, looked up): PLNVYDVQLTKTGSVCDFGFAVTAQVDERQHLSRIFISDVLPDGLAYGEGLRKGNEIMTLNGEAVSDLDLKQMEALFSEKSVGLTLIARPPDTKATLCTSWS

ARHGEF12, Q9NZN5-2 = biological target: ARHGEF12, Q9NZN5-2
ARHGEF12, Q9NZN5-2, sequence (Q9NZN5 other isoform, or with tags, fused parts or gaps): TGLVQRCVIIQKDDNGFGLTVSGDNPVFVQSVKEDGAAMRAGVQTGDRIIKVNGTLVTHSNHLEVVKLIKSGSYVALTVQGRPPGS

MPP2, Q14168 = biological target: T4, MPP2, Q14168
T4 sequence (Q14168 180-250, limits assumed, looked up): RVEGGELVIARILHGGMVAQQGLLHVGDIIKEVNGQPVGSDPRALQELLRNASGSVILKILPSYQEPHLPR

PTPN3, P26045 = biological target: PTPN3, P26045
PTPN3, P26045, sequence (P26045 505-587): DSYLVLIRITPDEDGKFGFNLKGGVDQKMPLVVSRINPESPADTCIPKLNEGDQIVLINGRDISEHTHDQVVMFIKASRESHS

TJP3_3, O95049 = biological target: T5, TJP3_3, O95049
T5 sequence (O95049 375-456, limits assumed, looked up): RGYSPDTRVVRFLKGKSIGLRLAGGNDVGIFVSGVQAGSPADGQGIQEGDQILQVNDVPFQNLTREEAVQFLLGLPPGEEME

DFNB31_3, Q9P202 = biological target: T6, DFNB31_3, Q9P202
T6 sequence (Q9P202 811-907, limits assumed, looked up): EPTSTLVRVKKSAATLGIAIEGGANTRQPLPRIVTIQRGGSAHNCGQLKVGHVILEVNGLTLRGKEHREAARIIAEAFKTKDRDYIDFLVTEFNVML

SIPA1L2, Q9P2F8 = biological target: T7, SIPA1L2, Q9P2F8
T7 sequence (Q9P2F8 945-1036, limits assumed, looked up): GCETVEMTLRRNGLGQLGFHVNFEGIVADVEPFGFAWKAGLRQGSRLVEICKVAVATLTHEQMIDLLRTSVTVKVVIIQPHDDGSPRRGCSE

MAST2, Q6P0Q8 = biological target: MAST2, Q6P0Q8
MAST2, Q6P0Q8, sequence (Q6P0Q8 1099-1202): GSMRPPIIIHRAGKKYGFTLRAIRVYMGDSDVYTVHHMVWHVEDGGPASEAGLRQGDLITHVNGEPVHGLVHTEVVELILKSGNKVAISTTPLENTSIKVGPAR

TJP2_1, Q9UDY2 = biological target: TJP2_1, Q9UDY2
TJP2_1, Q9UDY2, sequence (Q9UDY2 24-128): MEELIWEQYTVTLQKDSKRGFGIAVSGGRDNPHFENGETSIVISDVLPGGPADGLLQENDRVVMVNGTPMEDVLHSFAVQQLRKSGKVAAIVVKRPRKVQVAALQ

DFNB31_1, Q9P202 = biological target: T8, DFNB31_1, Q9P202
T8 sequence (Q9P202 135-233, limits assumed, looked up): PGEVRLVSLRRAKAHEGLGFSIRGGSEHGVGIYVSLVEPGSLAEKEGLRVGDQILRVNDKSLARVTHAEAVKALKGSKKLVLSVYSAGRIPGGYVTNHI

SHANK1, Q9Y566 = biological target: T9, SHANK1, Q9Y566
T9 sequence (Q9Y566 658-767, limits assumed, looked up): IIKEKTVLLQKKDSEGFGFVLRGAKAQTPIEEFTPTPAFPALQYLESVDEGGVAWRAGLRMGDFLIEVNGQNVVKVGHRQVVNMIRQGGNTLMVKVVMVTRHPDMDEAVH

GRIP2_4, Q9C0E4 = biological target: GRIP2_4, Q9C0E4
GRIP2_4, Q9C0E4, sequence (Q9C0E4 446-548): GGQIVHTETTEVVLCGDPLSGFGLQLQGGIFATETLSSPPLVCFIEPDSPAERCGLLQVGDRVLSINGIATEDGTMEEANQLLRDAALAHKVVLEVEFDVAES

APBA3_1, O96018 = biological target: T10, APBA3_1, O96018
T10 sequence (O96018 389-490, limits assumed, looked up): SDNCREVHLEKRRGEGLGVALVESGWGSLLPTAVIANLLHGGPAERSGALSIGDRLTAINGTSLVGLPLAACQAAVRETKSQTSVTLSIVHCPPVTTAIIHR

GORASP1, Q9BQQ3 = biological target: GORASP1, Q9BQQ3
GORASP1, Q9BQQ3, sequence (Q9BQQ3 1-208): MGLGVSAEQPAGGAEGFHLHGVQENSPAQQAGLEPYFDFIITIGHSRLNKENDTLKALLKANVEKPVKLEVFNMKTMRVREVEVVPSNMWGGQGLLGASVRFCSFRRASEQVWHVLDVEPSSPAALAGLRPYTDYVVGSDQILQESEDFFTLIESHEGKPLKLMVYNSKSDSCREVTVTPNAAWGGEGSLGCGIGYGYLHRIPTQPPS

HTRA1, Q92743 = biological target: HTRA1, Q92743
HTRA1, Q92743, sequence (Q92743 360-477): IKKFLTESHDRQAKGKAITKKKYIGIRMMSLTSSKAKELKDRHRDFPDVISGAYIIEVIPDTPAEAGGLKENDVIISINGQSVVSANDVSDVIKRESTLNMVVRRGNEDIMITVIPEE

GRIP1_7, Q9Y3R0 = biological target: T11, GRIP1_7, Q9Y3R0
T11 sequence (Q9Y3R0 999-1096, limits assumed, looked up): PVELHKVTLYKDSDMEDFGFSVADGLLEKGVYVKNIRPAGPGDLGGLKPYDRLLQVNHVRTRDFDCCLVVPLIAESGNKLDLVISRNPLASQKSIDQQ

GRIP1_2, Q9Y3R0 = biological target: T12, GRIP1_2, Q9Y3R0
T12 sequence (Q9Y3R0 145-248, limits assumed, looked up): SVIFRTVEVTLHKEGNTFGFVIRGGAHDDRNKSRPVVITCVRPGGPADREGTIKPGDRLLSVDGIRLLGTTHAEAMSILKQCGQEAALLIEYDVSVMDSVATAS

DLG2_2, Q15700 = biological target: DLG2_2, Q15700
DLG2_2, Q15700, sequence (Q15700 189-283): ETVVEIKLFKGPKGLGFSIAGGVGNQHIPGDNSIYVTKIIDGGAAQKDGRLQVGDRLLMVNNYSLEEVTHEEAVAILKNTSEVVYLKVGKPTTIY

PICK1, Q9NRD5 = biological target: PICK1, Q9NRD5
PICK1, Q9NRD5, sequence (Q9NRD5 17-115): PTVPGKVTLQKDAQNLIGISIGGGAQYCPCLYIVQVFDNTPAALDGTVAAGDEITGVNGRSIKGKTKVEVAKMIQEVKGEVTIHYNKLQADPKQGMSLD

GRID2IP_2, A4D2P6 = biological target: GRID2IP_2, A4D2P6
GRID2IP_2, A4D2P6, sequence (A4D2P6 272-370): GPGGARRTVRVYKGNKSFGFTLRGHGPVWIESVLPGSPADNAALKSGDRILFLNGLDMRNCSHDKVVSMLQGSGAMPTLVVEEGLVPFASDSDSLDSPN

LAP2, Q96RT1 = biological target: LAP2, Q96RT1
LAP2, Q96RT1, sequence (Q96RT1 other isoform, or with tags, fused parts or gaps): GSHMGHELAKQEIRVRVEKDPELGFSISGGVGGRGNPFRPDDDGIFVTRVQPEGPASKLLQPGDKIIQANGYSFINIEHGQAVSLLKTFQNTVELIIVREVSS

Inadl_3, Q8NI35 = biological target: Inadl_3, Q8NI35
Inadl_3, Q8NI35, sequence (Q8NI35 359-469): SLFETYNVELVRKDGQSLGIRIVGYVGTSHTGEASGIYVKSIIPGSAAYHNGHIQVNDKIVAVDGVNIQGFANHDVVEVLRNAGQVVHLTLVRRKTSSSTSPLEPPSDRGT

[1] = plain residues with an end cap or a label only (N-terminal biotin on a linker: ahx)
[2] = plain residues with an end cap or a label only (N-terminal biotin on a linker: ttds)
[3] = plain residues with an end cap or a label only (N-terminal biotin on a linker: gsgsgs; C-terminal amide)

AHNAK1, Q09666, sequence (Q09666 4-100): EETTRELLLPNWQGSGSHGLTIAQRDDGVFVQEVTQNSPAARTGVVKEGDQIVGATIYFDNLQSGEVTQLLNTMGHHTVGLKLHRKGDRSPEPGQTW
LNX1_3, Q8TBB1, sequence (Q8TBB1 500-596): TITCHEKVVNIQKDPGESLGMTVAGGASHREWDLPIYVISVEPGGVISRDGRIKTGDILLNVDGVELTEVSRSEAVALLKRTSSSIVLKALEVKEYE

## HTHSYIETHV [CNKSR2, Q8WXI2]
MPDZ_5, O75970; [1]
  pKd: below the threshold
LNX1_3, Q8TBB1; [1]
  pKd: below the threshold
AHNAK1, Q09666; [1]
  pKd: below the threshold
GRIP1_4, Q9Y3R0; [1]
  pKd: below the threshold
TIAM2, Q8IVF5; [1]
  pKd: 3.81
ARHGEF12, Q9NZN5-2; [1]
  pKd: 3.88
MPP2, Q14168; [1]
  pKd: below the threshold
PTPN3, P26045; [1]
  pKd: 4.58
TJP3_3, O95049; [1]
  pKd: below the threshold
DFNB31_3, Q9P202; [1]
  pKd: below the threshold
SIPA1L2, Q9P2F8; [1]
  pKd: below the threshold
MAST2, Q6P0Q8; [1]
  pKd: 5.29
TJP2_1, Q9UDY2; [1]
  pKd: 4.46
DFNB31_1, Q9P202; [1]
  pKd: 4.23
SHANK1, Q9Y566; [1]
  pKd: 4.24
GRIP2_4, Q9C0E4; [1]
  pKd: below the threshold
APBA3_1, O96018; [1]
  pKd: below the threshold
GORASP1, Q9BQQ3; [1]
  pKd: below the threshold
HTRA1, Q92743; [1]
  pKd: 3.84
GRIP1_7, Q9Y3R0; [1]
  pKd: below the threshold
GRIP1_2, Q9Y3R0; [1]
  pKd: below the threshold
DLG2_2, Q15700; [1]
  pKd: 4.42
PICK1, Q9NRD5; [1]
  pKd: below the threshold
GRID2IP_2, A4D2P6; [1]
  pKd: below the threshold
LAP2, Q96RT1; [1]
  pKd: 5.51
Inadl_3, Q8NI35; [1]
  pKd: 3.66

## IYVPEAQTRL [DLGAP4, Q9Y2H0]
MPDZ_5, O75970; [2]
  pKd: below the threshold
LNX1_3, Q8TBB1; [2]
  pKd: below the threshold
AHNAK1, Q09666; [2]
  pKd: below the threshold
GRIP1_4, Q9Y3R0; [2]
  pKd: below the threshold
TIAM2, Q8IVF5; [2]
  pKd: below the threshold
ARHGEF12, Q9NZN5-2; [2]
  pKd: 4.1
MPP2, Q14168; [2]
  pKd: below the threshold
PTPN3, P26045; [2]
  pKd: 4.38
TJP3_3, O95049; [2]
  pKd: below the threshold
DFNB31_3, Q9P202; [2]
  pKd: below the threshold
SIPA1L2, Q9P2F8; [2]
  pKd: below the threshold
MAST2, Q6P0Q8; [2]
  pKd: 6.16
TJP2_1, Q9UDY2; [2]
  pKd: below the threshold
DFNB31_1, Q9P202; [2]
  pKd: 3.96
SHANK1, Q9Y566; [2]
  pKd: 5.54
GRIP2_4, Q9C0E4; [2]
  pKd: below the threshold
APBA3_1, O96018; [2]
  pKd: below the threshold
GORASP1, Q9BQQ3; [2]
  pKd: below the threshold
HTRA1, Q92743; [2]
  pKd: 3.63
GRIP1_7, Q9Y3R0; [2]
  pKd: 3.77
GRIP1_2, Q9Y3R0; [2]
  pKd: below the threshold
DLG2_2, Q15700; [2]
  pKd: below the threshold
PICK1, Q9NRD5; [2]
  pKd: below the threshold
GRID2IP_2, A4D2P6; [2]
  pKd: 4.08
LAP2, Q96RT1; [2]
  pKd: below the threshold
Inadl_3, Q8NI35; [2]
  pKd: below the threshold

## SSRTRRETQL [HPV16-E6, P03126]
MPDZ_5, O75970; [2]
  pKd: 3.67
LNX1_3, Q8TBB1; [2]
  pKd: 3.51
AHNAK1, Q09666; [2]
  pKd: below the threshold
GRIP1_4, Q9Y3R0; [2]
  pKd: below the threshold
TIAM2, Q8IVF5; [2]
  pKd: below the threshold
ARHGEF12, Q9NZN5-2; [2]
  pKd: 4.92
MPP2, Q14168; [2]
  pKd: below the threshold
PTPN3, P26045; [2]
  pKd: 5.06
TJP3_3, O95049; [2]
  pKd: 3.68
DFNB31_3, Q9P202; [2]
  pKd: below the threshold
SIPA1L2, Q9P2F8; [2]
  pKd: below the threshold
MAST2, Q6P0Q8; [2]
  pKd: 5.66
TJP2_1, Q9UDY2; [2]
  pKd: 4.12
DFNB31_1, Q9P202; [2]
  pKd: 3.53
SHANK1, Q9Y566; [2]
  pKd: 3.68
GRIP2_4, Q9C0E4; [2]
  pKd: below the threshold
APBA3_1, O96018; [2]
  pKd: below the threshold
GORASP1, Q9BQQ3; [2]
  pKd: 3.52
HTRA1, Q92743; [2]
  pKd: below the threshold
GRIP1_7, Q9Y3R0; [2]
  pKd: below the threshold
GRIP1_2, Q9Y3R0; [2]
  pKd: below the threshold
DLG2_2, Q15700; [2]
  pKd: 4.93
PICK1, Q9NRD5; [2]
  pKd: below the threshold
GRID2IP_2, A4D2P6; [2]
  pKd: 3.86
LAP2, Q96RT1; [2]
  pKd: below the threshold
Inadl_3, Q8NI35; [2]
  pKd: below the threshold

## TLSLTDSSVDGIPPYR [AXIN1_int, O15169]
MPDZ_5, O75970; [3]
  pKd: below the threshold
LNX1_3, Q8TBB1; [3]
  pKd: below the threshold
AHNAK1, Q09666; [3]
  pKd: below the threshold
GRIP1_4, Q9Y3R0; [3]
  pKd: below the threshold
TIAM2, Q8IVF5; [3]
  pKd: 3.9
ARHGEF12, Q9NZN5-2; [3]
  pKd: below the threshold
MPP2, Q14168; [3]
  pKd: below the threshold
PTPN3, P26045; [3]
  pKd: 3.83
TJP3_3, O95049; [3]
  pKd: below the threshold
DFNB31_3, Q9P202; [3]
  pKd: 3.91
SIPA1L2, Q9P2F8; [3]
  pKd: below the threshold
MAST2, Q6P0Q8; [3]
  pKd: below the threshold
TJP2_1, Q9UDY2; [3]
  pKd: below the threshold
DFNB31_1, Q9P202; [3]
  pKd: below the threshold
SHANK1, Q9Y566; [3]
  pKd: below the threshold
GRIP2_4, Q9C0E4; [3]
  pKd: below the threshold
APBA3_1, O96018; [3]
  pKd: below the threshold
GORASP1, Q9BQQ3; [3]
  pKd: below the threshold
HTRA1, Q92743; [3]
  pKd: below the threshold
GRIP1_7, Q9Y3R0; [3]
  pKd: below the threshold
GRIP1_2, Q9Y3R0; [3]
  pKd: below the threshold
DLG2_2, Q15700; [3]
  pKd: below the threshold
PICK1, Q9NRD5; [3]
  pKd: below the threshold
GRID2IP_2, A4D2P6; [3]
  pKd: below the threshold
LAP2, Q96RT1; [3]
  pKd: below the threshold
Inadl_3, Q8NI35; [3]
  pKd: below the threshold
